Source: patent US20260167731A1 (DOMAIN THERAPEUTICS, published 2026)
Where “and” joins values, the source holds several entries; their conditions need not be identical. Identical values can stand only once.

Columns and labels:
[1] = biological target: T1, human CCR8 (human, UniProt P51685 1-355); assay: cell-based or functional assay
[2] = biological target: T1, human CCR8; assay: flow cytometry, inhibition of hCCL1-AF647 binding to hCCR8 CHO cells
Experimental: The hCCR8 transfected CHO cell line was dispatched at a density of 1·10⁵ per well in a 96-well plate. Cells were incubated for 30 min at 4° C. with or without anti-CCR8 mAb tested at 10 μg/mL then diluted at 1/3. Unbound antibodies were washed away with PBS (Gibco, Villebon-sur-Yvette, France) supplemented by 2% Fetal Bovine Serum (Invitrogen by Thermofisher Scientific, Illkirch-Graffenstaden, France) and 2 mM EDTA. […] After washing unbound ligands, CCL1 bound detection is quantified on a MacsQuant16 (Miltenyi, Gladbach, Germany) (R1 channel, 5 000 events per acquisition).
For IC₅₀ determination, a concentration response curve is performed using 8 concentrations of mAb. Curves are fitted and IC₅₀ of CCL1 binding blocking activity is calculated using the sigmoidal dose-response (variable slope) model on GraphPad Prism 9 (GraphPad Software, San Diego, CA, USA).

[3] = biological target: T1, human CCR8; assay: cell-based or functional assay; remark: listed apart in the source
[4] = biological target: T1, human CCR8; assay: cell-based or functional assay; remark: listed apart in the source
[5] = biological target: T1, human CCR8; assay: flow cytometry, hCCR8 transfected CHOK1 cells
Experimental: (§1) The same staining protocol was applied on human CCR8 transfected CHO cell line versus wild type CHO cell line, cutaneous T cell lymphoma HUT78 cell line and human activated T cell model.
(§2) Briefly, 1·10⁵ cells per well in a 96 well plate were incubated with a dilution of unconjugated anti-CCR8 mAb at 10 μg/mL then diluted at 1/3.33, 4 dilution points (during 30 min at 4° C.). In human activated T cells model, prior to mAb incubation, cells were first incubated with 200 nM of hCCL1 (R&D Systems, Minneapolis, MN, USA) or buffer PBS (Invitrogen by Thermofisher Scientific, Illkirch-Graffenstaden, France) supplemented by 2% Fetal Bovine Serum (Invitrogen by Thermofisher Scientific, Illkirch-Graffenstaden, France) and 2 mM EDTA (Invitrogen by Thermofisher Scientific, Illkirch-Graffenstaden, France) during 1 hour at 4° C. To determine EC50 value, 8 concentrations of anti-CCR8 mAb were tested. Unbound antibodies were washed away with PBS (Invitrogen by Thermofisher Scientific, Illkirch-Graffenstaden, France) supplemented by 2% Fetal Bovine Serum (Invitrogen by Thermofisher Scientific, Illkirch-Graffenstaden, France) and 2 mM EDTA (Invitrogen by Thermofisher Scientific, Illkirch-Graffenstaden, France). Subsequently, cells are centrifuged (5 min at 400 g) and bound antibody is detected with F(ab′)₂-Goat anti-Mouse IgG (H+L) Cross-Adsorbed Secondary Antibody, Alexa Fluor 488 (dilution 1/500) (Invitrogen by Thermofisher Scientific, Illkirch-Graffenstaden, France) or with F(ab′)₂-Goat anti-Human IgG Fc Secondary Antibody, PE (Invitrogen by Thermofisher Scientific, Illkirch-Graffenstaden, France) (dilution 1/1000) at 4° C. for 30 min. Detection reagent is washed away and cells are centrifuged (5 min at 400 g) and resuspended in 30 μL PBS. Bound detection antibody is quantified on a MacsQuant16 (Miltenyi, Gladbach, Germany) (B1 or B2 channel, 5000 events per acquisition). During the experiment, the respective isotype mAb controls (mouse IgG1, mouse IgG2a, mouse IgG2b, mouse IgG3 or human IgG1) (Biolegend, Amsterdam, The Netherlands) are included to exclude any unspecific binding events.

[6] = biological target: T1, human CCR8; assay: cell-based or functional assay; remark: listed apart in the source
[7] = biological target: T2, hCCR8 SNAP-tag (human, UniProt P51685 1-355, SNAP-tag labelled with Lumi4-Terbium); assay: HTRF Tag-lite, inhibition of hCCL1-AF647 binding to SNAP-tag hCCR8 on HEK-293
T2 construct: also called human CCR8 engineered with a SNAP-tag at the N-terminus; not shown: SNAP-tag at the N-terminus
Experimental: The inhibition of CCL1 binding to hCCR8 was evaluated with the Tag-Lite® technology from Cisbio (Revvity). Human CCR8 is engineered with a SNAP-tag at the N-terminus of the GPCR. hCCR8 SNAP-tag is transiently transfected on HEK-293 cell line using FuGene® (Promega, Madison, WI, USA). 48 hours after transfection, cells are labeled with the substrate Lumi4-Terbium® (Cisbio, Codolet, France) which covalently reacts with the SNAP-tag, for 1 h at 37° C. […] The Kd is previously obtained in a saturation binding assay on the same cells. […] The plate is next incubated at 21° C. for 2 h. Detection of HTRF signal is performed on the multiplate reader EnVision (PerkinElmer, Waltham, MA, USA). The HTRF (665/620) ratio is calculated by EnVision software, the data exported are considered as the total binding. The specific binding is calculated then by subtracting the non-specific signal from the total binding. The Ki and IC₅₀are calculated using the “One site—Fit Ki” and “One site—FitlogIC50” from GraphPad Prism 9 (Graphpad Software, San Diego, CA, USA), respectively.

[8] = biological target: T2, hCCR8 SNAP-tag; assay: cell-based or functional assay
[9] = biological target: T1, human CCR8; assay: cell-based or functional assay; remark: listed apart in the source
[10] = biological target: T3, pwt1, unmodified CCR8 related peptide (human, none (non-sulfated Y15, Y16, Y17)); assay: ELISA on coated CCR8 peptide (500 ng/mL), OD [cont.]
T3 construct: First 34 amino acids of human CCR8, synthetic; also called unmodified peptide
T3 sequence (peptide, as listed by the source): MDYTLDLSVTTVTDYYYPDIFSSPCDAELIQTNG
Experimental: (§3) The specific binding properties of antibodies were evaluated by ELISA with coated CCR8 related peptides (500 ng/mL) in carbonate/bicarbonate buffer. Different peptides were used as described in Table 1 (see Example 1). Each anti-CCR8 mAb was tested at 1 μg/mL then diluted at 1/10. After an incubation at room temperature during 90 min, unbound mAbs were removed by washings. […] After washings, 3,3′,5,5′-tetramethylbenzidine (TMB) (Interchim, Montlugon, France) was added for 15 min. Then the optical density (OD) was determined by using a multiplate reader (Tecan, Lyon, France) and correlated with mAb reactivity on the panel of coated peptides.

[11] = biological target: pm3, modified CCR8 related peptide (human, sulfated tyrosine at Y17); assay: as above
Sequence of pm3, modified CCR8 related peptide (human, sulfated tyrosine at Y17) (peptide, as listed by the source): as above
Experimental: as §3

[12] = biological target: pm2, modified CCR8 related peptide (human, sulfated tyrosine at Y16); assay: as above
Sequence of pm2, modified CCR8 related peptide (human, sulfated tyrosine at Y16) (peptide, as listed by the source): as above
Experimental: as §3

[13] = biological target: pm1, modified CCR8 related peptide (human, sulfated tyrosine at Y15); assay: as above
Sequence of pm1, modified CCR8 related peptide (human, sulfated tyrosine at Y15) (peptide, as listed by the source): as above
Experimental: as §3

[14] = biological target: pm5, modified CCR8 related peptide (human, sulfated tyrosines at Y15 and Y17); assay: as above
Sequence of pm5, modified CCR8 related peptide (human, sulfated tyrosines at Y15 and Y17) (peptide, as listed by the source): as above
Experimental: as §3

[15] = biological target: pm8, modified CCR8 related peptide (human, sulfated tyrosines at Y15, Y16 and Y17); assay: as above
Sequence of pm8, modified CCR8 related peptide (human, sulfated tyrosines at Y15, Y16 and Y17) (peptide, as listed by the source): as above
Experimental: as §3

[16] = biological target: pm4, modified CCR8 related peptide (human, sulfated tyrosines at Y15 and Y16); assay: as above
Sequence of pm4, modified CCR8 related peptide (human, sulfated tyrosines at Y15 and Y16) (peptide, as listed by the source): as above
Experimental: as §3

[17] = biological target: pm6, modified CCR8 related peptide (human, sulfated tyrosines at Y16 and Y17); assay: as above
Sequence of pm6, modified CCR8 related peptide (human, sulfated tyrosines at Y16 and Y17) (peptide, as listed by the source): as above
Experimental: as §3

[18] = biological target: T1, human CCR8; assay: flow cytometry, HUT78 cells (endogenous CCR8)
Experimental: as §1, §2
EC50 values were determined via nonlinear fit “log(agonist)vs.response−Variable slope (four parameters)” function of Graphpad prism. EC50 values were not constantly determined in the same experiments.

IC50, CCL1 induced hCCR8 Gi2 signaling (BRET, HEK-293) [1] | hCCL1 (100 nM) residual response in %, Protocol #2, mAb 0.08 µg/mL (0.53 nM) [3] | hCCL1 (100 nM) residual response in %, Protocol #2, mAb 0.4 µg/mL (2.67 nM) [3] | hCCL1 (100 nM) residual response in %, Protocol #2, mAb 10 µg/mL (66.7 nM) [3] | hCCL1 (100 nM) residual response in %, Protocol #3, mAb 0.05 µg/mL (0.33 nM) [3] | hCCL1 (100 nM) residual response in %, Protocol #3, mAb 0.5 µg/mL (3.33 nM) [3] | hCCL1 (100 nM) residual response in %, Protocol #3, mAb 5 µg/mL (33.3 nM) [3] | IC50 [7] | Ki [7] | % of internalization at 1 µg/ml (CCL1 at 300 nM = 100%), HTRF [8] | % of internalization at 10 µg/ml (CCL1 at 300 nM = 100%), HTRF [8] | binding result [10] | binding result [11] | binding result [12] | binding result [13] | binding result [14] | binding result [15] | binding result [16] | binding result [17] | % of labelled cells [18] | Binder | also measured
0.092 µg/mL and 0.616 nM | 97% | 96% | 84% | 96% | 81% | 73% | – | – | – | – | – | – | – | – | – | – | – | – | – | anti-CCR8 mAb 2-11 (antibody, V domains shown) VH: EVQLQQSGPELVKPGASVKISCKASVYSFTGSYMHWVKQSHVKSLEWIGRINPYNGATSYNQNFKDKASLTVDKSSSTAYMELHSLTSEDSAVYYCATTLLRLLDYWGQGTTLTVSS VL: DIVMTQAAFSNPVTLGTSASISCRSSKSLLHSNGITYLYWYLQKPGQSPQLLIYQMSNLASGVPDRFSSSGSGTDFTLRISRVEAEDVGVYYCAQNLELPWTFGGGTKLEIK | IC50 [2]: 6.41 µg/mL and 43 nM; IC50, CCL1 induced hCCR8 Gi2 signaling (BRET) at pH 6.5 [4]: 0.162 µg/ml and 1.08 nM; IC50, CCL1 induced hCCR8 Gi2 signaling (BRET) at pH 7.4 [4]: 0.152 µg/ml and 1.01 nM; % positive cells [5]: 34.7%; MFI fold change to isotype ctrl [5]: 2.34 fold; Top plateau values in presence of 5 µg/mL mAb (% of hCCL1 (100 nM)), protocol #3 [6]: 292%
0.022 µg/mL and 0.147 nM | 67% | 55% | 32% | 86% | 60% | 42% | 0.04 µg/mL | 0.02 µg/mL | 44% | 29% | binds | binds | binds | binds | binds | binds | binds | binds | 96% | humanized anti-CCR8 mAb 2-14 (antibody, human IgG1, kappa, V domains shown, Humanized, human IgG1 / kappa) VH: QVQLVQSGPEVVKPGASVKVSCKTSGYTFTEYTIHWVRQAPGQSLEWVGGINPNNGNTRYDQKFQGRVTITRDKSASTAYMELRSLTSEDTAVYYCARVARSSGSGPYAMDYWGQGTTVTVSS VL: DVVMTQSPLSLPVTLGDQASISCRCSQSLLHTNGDTYLHWYLQRPGQSPRLLIYKVSNRFSGVPDRFSGSGSGTDFTLKISRVEAEDVGVYFCSQSTHVPYTFGGGTKVEIKR | ADCC % Max lysis, HUT78 targets, NK cells Donor 3 [9]: 15%; ADCC % Max lysis, HUT78 targets, NK cells Donor 4 [9]: 16%; ADCC EC50, HUT78 targets, NK cells Donor 3 [9]: 0.505 nM; ADCC EC50, HUT78 targets, NK cells Donor 4 [9]: 0.573 nM
0.034 µg/mL and 0.227 nM | 77% | 66% | 41% | 73% | 52% | 37% | 0.04 µg/mL | 0.02 µg/mL | 44% | 36% | binds | binds | binds | binds | binds | binds | binds | binds | 88% | humanized anti-CCR8 mAb 2-15 (antibody, human IgG1, kappa, V domains shown, Humanized, human IgG1 / kappa) VH: QVQLQQSGPEVVKPGASVKVSCKTSGYTFTEYTIHWVRQSHGQSLEWVGGINPNNGNTRYDQKFKGRVTITIDKSSSTAYMELRSLTSEDTAVYYCARVARSSGSGPYAMDYWGQGTTVTVSS VL: DVVMTQSPLSLPVTLGDQASISCRCSQSLLHTNGDTYLHWYLQRPGQSPRLLIYKVSNRFSGVPDRFSGSGSGTDFTLKISRVEAEDVGVYFCSQSTHVPYTFGGGTKVEIKR | EC50 [18]: 0.2 nM
